IntAct's records for PubMed 15895076

B1: Dynamin-2 (Rattus norvegicus (Rat)), P39052 (parent)
chain: MGNRGMEELIPLVNKLQDAFSSIGQSCHLDLPQIAVVGGQSAGKSSVLENFVGRDFLPRGSGIVTRRPLILQLIFSKTEYAEFLHCKSKKFTDFDEVRQEIEAETDRVTGTNKGISPVPINLRVYSPHVLNLTLIDLPGITKVPVGDQPPDIEYQIKDMILQFISRESSLILAVTPANMDLANSDALKLAKEVDPQGLRTIGVITKLDLMDEGTDARDVLENKLLPLRRGYIGVVNRSQKDIEGRKDIRAALAAERKFFLSHPAYRHMADRMGTPHLQKTLNQQLTNHIRESLPTLRSKLQSQLLSLEKEVEEYKNFRPDDPTRKTKALLQMVQQFGVDFEKRIEGSGDQVDTLELSGGARINRIFHERFPFELVKMEFDEKDLRREISYAIKNIHGVRTGLFTPDLAFEAIVKKQVVKLKEPCLKCVDLVIQELISTVRQCTSKLSSYPRLREETERIVTTYIREREGRTKDQILLLIDIEQSYINTNHEDFIGFANAQQRSTQLNKKRAIPNQGEILVIRRGWLTINNISLMKGGSKEYWFVLTAESLSWYKDEEEKEKKYMLPLDNLKIRDVEKGFMSNKHVFAIFNTEQRNVYKDLRQIELACDSQEDVDSWKASFLRAGVYPEKDQAENEDGAQENTFSMDPQLERQVETIRNLVDSYVAIINKSIRDLMPKTIMHLMINNTKAFIHHELLAYLYSSADQSSLMEESAEQAQRRDDMLRMYHALKEALNIIGDISTSTVSTPVPPPVDDTWLQNTSSHSPTPQRRPVSSVHPPGRPPAVRGPTPGPPLIPMPVGATSSFSAPPIPSRPGPQNVFANNDPFSAPPQIPSRPARIPPGIPPGVPSRRAPAAPSRPTIIRPAEPSLLD
B2: Focal adhesion kinase 1 (Homo sapiens), Q05397 (parent)
chain: MAAAYLDPNLNHTPNSSTKTHLGTGMERSPGAMERVLKVFHYFESNSEPTTWASIIRHGDATDVRGIIQKIVDSHKVKHVACYGFRLSHLRSEEVHWLHVDMGVSSVREKYELAHPPEEWKYELRIRYLPKGFLNQFTEDKPTLNFFYQQVKSDYMLEIADQVDQEIALKLGCLEIRRSYWEMRGNALEKKSNYEVLEKDVGLKRFFPKSLLDSVKAKTLRKLIQQTFRQFANLNREESILKFFEILSPVYRFDKECFKCALGSSWIISVELAIGPEEGISYLTDKGCNPTHLADFTQVQTIQYSNSEDKDRKGMLQLKIAGAPEPLTVTAPSLTIAENMADLIDGYCRLVNGTSQSFIIRPQKEGERALPSIPKLANSEKQGMRTHAVSVSETDDYAEIIDEEDTYTMPSTRDYEIQRERIELGRCIGEGQFGDVHQGIYMSPENPALAVAIKTCKNCTSDSVREKFLQEALTMRQFDHPHIVKLIGVITENPVWIIMELCTLGELRSFLQVRKYSLDLASLILYAYQLSTALAYLESKRFVHRDIAARNVLVSSNDCVKLGDFGLSRYMEDSTYYKASKGKLPIKWMAPESINFRRFTSASDVWMFGVCMWEILMHGVKPFQGVKNNDVIGRIENGERLPMPPNCPPTLYSLMTKCWAYDPSRRPRFTELKAQLSTILEEEKAQQEERMRMESRRQATVSWDSGGSDEAPPKPSRPGYPSPRSSEGFYPSPQHMVQTNHYQVSGYPGSHGITAMAGSIYPGQASLLDQTDSWNHRPQEIAMWQPNVEDSTVLDLRGIGQVLPTHLMEERLIRQQQEMEEDQRWLEKEERFLKPDVRLSRGSIDREDGSLQGPIGNQHIYQPVGKPDPAAPPKKPPRPGAPGHLGSLASLSSPADSYNEGVKLQPQEISPPPTANLDRSNDKVYENVTGLVKAVIEMSSKIQPAPPEEYVPMVKEVGLALRTLLATVDETIPLLPASTHREIEMAQKLLNSDLGELINKMKLAQQYVMTSLQQEYKKQMLTAAHALAVDAKNLLDVIDQARLKMLGQTRPH
partner: B1 chain

Variants of: B1
Conditions: with fak1_mouse Ptk2, P34152
For K44E, the “effect of a mutation on the interaction” value was “increasing interaction”.

Variants of: B2
Conditions: with dyn2_rat Dnm2, P39052
With Y925F the “effect of a mutation on the interaction” value was “disrupting interaction”.
